Assays:
Assay in all cases: EMSA
[1] = biological target: T1, GlrR-His10 (E. coli) (Escherichia coli) (UniProt P0AFU4)
T1 sequence: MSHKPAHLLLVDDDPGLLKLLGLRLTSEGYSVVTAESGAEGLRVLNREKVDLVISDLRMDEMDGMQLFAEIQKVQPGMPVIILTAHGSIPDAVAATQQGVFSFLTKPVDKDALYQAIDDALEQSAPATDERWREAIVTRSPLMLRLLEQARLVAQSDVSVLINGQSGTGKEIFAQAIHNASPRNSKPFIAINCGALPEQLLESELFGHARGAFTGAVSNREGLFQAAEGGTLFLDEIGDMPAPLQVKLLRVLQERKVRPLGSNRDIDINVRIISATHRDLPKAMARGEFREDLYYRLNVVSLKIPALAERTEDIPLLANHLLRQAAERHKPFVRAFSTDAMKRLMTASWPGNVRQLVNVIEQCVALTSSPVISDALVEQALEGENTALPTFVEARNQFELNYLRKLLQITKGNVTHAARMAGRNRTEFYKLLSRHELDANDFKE

[2] = test system: GlrR-His10 (E. coli) (Escherichia coli)
IHF = IHF (UniProt P0A6X7+P0A6Y1)
UniProt P0A6X7, sequence (P0A6X7 2-99, chain 1 of 2): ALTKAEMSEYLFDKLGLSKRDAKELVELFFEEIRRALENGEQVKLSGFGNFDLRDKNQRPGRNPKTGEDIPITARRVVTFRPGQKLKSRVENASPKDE
UniProt P0A6X7, sequence (P0A6Y1 whole entry, chain 2 of 2): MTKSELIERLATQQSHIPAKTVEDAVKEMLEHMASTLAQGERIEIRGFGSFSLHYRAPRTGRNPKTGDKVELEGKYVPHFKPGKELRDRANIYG

[3] = test system: GlrR-His10 (Y. pseudotuberculosis) (Yersinia pseudotuberculosis), ORF:f09f451a
[4] = test system: GlrR-His10 (Y. pseudotuberculosis) (Yersinia pseudotuberculosis)

ATTAATGCAGCTGGCACGACAGGTTTCCCGACTGGAAAGCGGGCAGTGAGCGCAACGCAATTAATGTGAGTTAGCTCACTCATTAGGCACCCCAGGCTTTACACTTTATGCTTCCGGCTCGTATGTTGTGTGGAATTGTGAGCGGATAACAATTTCACACAGGAAACAGCTATGACCATGATTACGGATTCACTGGCCGT (double strand) [lacZ promoter 200 bp control]
binding [1]: no binding

CGTCTCTAGACATAAGAAGGTGAATGAGCCACTGGTTACCATTATGCAGTAATTGTGCCAACATTCAAAAGAATTTGTTAACATAATGATAGATATGAAAAATATCGTTATTCATGCTAAAAATGGCTCTGTCTGTTTTTTGCCCTTTCTGTCGCCAATCAGCAACACCTGCAACACCTAAAAATAAAACAATTTAAAATCAAATAGTTAAATGTCTCTTTTTGGCGACAACCTATCCCCCACTCATGTCGGGATTTCCCGACACTTTAATCTTGGTCGACGCGTGC (double strand) [S. typhimurium glmY promoter (-242 to +22)]
Kd [1]: 230 nM

E. coli glmY promoter (-238 to +22)
Kd [2]: 360 nM

GCACGCGTCGACGTGTTGCCATTATGATTTGTTGGCGATATCCCAGGCTTCATTTGTCGCTATTCGGTGACGAGTAATCTATTGATTTATAATCACTTTGTAAAAAGCATCCTGTTCTGTCTCCACCGGGCGACACGCTAAAACCTCGCCAGCGGCGGGGGGATGACAATCGCGTGAATTCTCTACGTTTTTTTAATGCCTGCGCCTGTTTTTTAGCGGTGCAAAGATGGCACGTTATGTGCAATAATGTACGGGTAGATGCTCATTCCATCTCTTATCTAGAGACG (double strand) [S. typhimurium glmZ promoter (-242 to +22)]
Kd [1]: 370 nM

GCTCTAGAATAAGTCGGTGAATGAGCCACTGGTTACTATTATGCAGTAACTGTGCCAATAAAGAAAATAGTTTGGTAACGTACTGATTATACGTTGCTTTGAGGGGTTTATGTCTCCTCCGCTGTTTGAATGTAAATCAGCCACTGTGTCGCTAAAAAGAGACAACTTAAGATAAACTTATTAGATAATATTAAAATCAATGAGTTAAGTGTCGCCAGAAAGCGACACGGCAAACCACCCATTGTCGTGATTTACAGACACAAAAAAGGTCGACGCGTGC (double strand) [E. coli glmY promoter (-238 to +22)]
binding (IHF): binds | Kd [1]: 360 nM | binding [1]: binds | binding [3]: binds

S. typhimurium glmY promoter (-242 to +22)
Kd [2]: 230 nM

S. typhimurium glmZ promoter (-242 to +22)
Kd [2]: 370 nM

Y. pseudotuberculosis glmY promoter (-257 to +22)
Kd [2]: 290 nM

Y. pseudotuberculosis glmZ promoter (-303 to +22)
binding signal (fold higher protein than E. coli GlrR) [4]: 4 | Kd [2]: 370 nM

Source: article PMC3045617
